Experimental data: the supplement of paper PMC10567573
± gives the standard deviation.

Assay: protein stability index of a GFP-peptide fusion (GPS, HEK-293T) (PSI 1-6); higher = more stable
Conditions: c terminus: a fixed tail appended
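Also: 24-mer peptide tiles fused after GFP, lentivirally expressed, FACS-sorted into six equal bins by GFP/DsRed ratio, decoded by Illumina sequencing, PSI is the read-weighted mean bin number.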

Sequence | protein stability index (treatment: DMSO) | protein stability index (treatment: MLN4924 1 uM, 8 h)
ESQASRKEEGLPEEEPSHVTGREG [ZNF8] | 5.62 ± 0.1 | 5.59 ± 0.2
EGCGPPLRRWLRANLAASGGYAIA [TSPAN10] | 1.94 ± 0.21 | 2.52 ± 0.3
QEVSSVRSLSSTGSLPSHAPPSED [DLC1] | 5.42 ± 0.22 | 5.44 ± 0.24
EPASESVVGALPAEHQFSFMEKRN [TRAF3IP2] | 4.71 ± 0.26 | 4.98 ± 0.27
VMLTLSDSKHVVLPVDDDSDLNVV [RBBP5] | 3.51 ± 0.14 | 3.49 ± 0.25
SNLSVENVADTLVLADLHSAEQLK [SPOPL] | 4.65 ± 0.27 | 4.61 ± 0.19
GSRISVSRSTSFRGGMGSGGLATG [KRT18] | 3.65 ± 0.19 | 4.04 ± 0.69
DSHILLCLMGLAETPGCATLLPAS [DCAF4] | 2.67 ± 0.45 | 2.58 ± 0.55
HTHRAHTVVPLDDATQEYKEKLQK [TRIM39] | 5.39 ± 0.2 | 5.3 ± 0.35
LVQLRNMVQQIQENSVEFEACLVA [TRIM9] | 2.25 ± 0.1 | 2.54 ± 0.37
NICHVWHMNVEALPEWISCLIQKA [RNF180] | 2.01 ± 0.24 | 2.57 ± 0.38
GRWVNENCRLQSPYFSPSASFHHK [CBY2] | 2.89 ± 0.19 | 2.86 ± 0.31
HRERVAMHYQMSVTLKYEIKKLIY [JAGN1] | 2.71 ± 0.49 | 2.92 ± 0.45
ETLLGDPKRRMRYFDPLRNEYFFD [KCNA3] | 2.58 ± 0.37 | 2.79 ± 0.29
ASWYSLSKGMQDFNYLHTNCFEIT [CPN1] | 2.56 ± 0.58 | 2.23 ± 0.4
SREYKLVMLGAGGVGKSAMTMQFI [RIT1] | 2.51 ± 0.46 | 2.27 ± 0.42
APDEKRSNVRWDHESVCKYYLCGF [LUC7L3] | 2.34 ± 0.28 | 2.41 ± 0.24
EAMAEKNRRDVEAWFFSKTEELNK [KRT15] | 4.15 ± 0.23 | 4.21 ± 0.25
VEPKHCFTSPDYQQQCHEMAERLE [SDE2] | 4.85 ± 0.21 | 4.83 ± 0.18
SGSDSGGSSSSSSSSINSPDRASG [FAM104A] | 5.36 ± 0.33 | 5.47 ± 0.11
FRADQRSGPRQLLTLYNPTGTALR [MOSPD3] | 3.2 ± 0.22 | 3.39 ± 0.35
RRLAQEPLGLEVDQFLEDVRLQER [NOP53] | 4.5 ± 0.16 | 4.54 ± 0.13

Sequence | protein stability index (treatment: DMSO) | protein stability index (treatment: MLN4924 1 uM, 8 h)
HPDSWRAYPFYWAWLPQAKVPFSQ [PI4K2A] | 2.5 ± 0.37 | 2.02 ± 0.94
PDLPFQIKPSENHYSLLTSQPLDR [PCDHGC5] | 3.97 ± 0.22 | 4.13 ± 0.14
LLTGQCDFGSNCRFSHMSERDLQE [ZMAT5] | 2.67 ± 0.21 | 2.78 ± 0.17
FMVVDLLLGGDLRYHLQQNVHFKE [STK32A] | 2.8 ± 0.66 | 3.09 ± 0.78
HRQSFGTNSDVLAQQFALMAPLLF [DCAF4] | 2.31 ± 0.28 | 2.36 ± 0.27
LGAEIRNGMAIIRPPGHHAQHSLM [HDAC6] | 2.92 ± 0.096 | 2.99 ± 0.26
TFPFKILGDSGLGPWQLNVFVCRV [P2RY14] | 3.47 ± 0.73 | 3.26 ± 1.5
KFRAKGRKPCKLMLQVVKILVVTV [MCOLN1] | 2.51 ± 0.39 | 2.16 ± 0.19
SIPVTELSASGPFESHDLLRKGFS [POMP] | 3.5 ± 0.25 | 3.39 ± 0.34
ETPEWLDSDSCQKCDQPFFWNFKQ [WDFY2] | 2.94 ± 0.29 | 3.19 ± 0.11
EPGRLGSSSPASVTTEQLGAKMTE [PXN] | 5.2 ± 0.46 | 5.23 ± 0.24
TVVGLFNVRDRDSGRNGEVSLDIS [PCDHGC5] | 2.83 ± 0.37 | 3.13 ± 0.19
LDLLLDMPPVSYDVQLLHSWNNND [SPSB1] | 2.66 ± 0.32 | 2.65 ± 0.23
CATVGNRGFVFGGRYRDARMNDLH [KLHDC2] | 2.19 ± 0.36 | 2.05 ± 0.19
KENKDVIQKNKLKLTREQEELEEA [MNAT1] | 5.49 ± 0.29 | 5.37 ± 0.31
LDTVELATYCVRTFALYKNGSSEK [PTPRD] | 2.37 ± 0.042 | 2.55 ± 0.35
PDGLMYQKFRNQFLSFSMYQSFVQ [TMEM120A] | 2.68 ± 0.59 | 2.33 ± 0.76
HDRNMDWVSTQLQATCNVHKSAFN [FADS1] | 3.22 ± 0.29 | 3.46 ± 0.2
EEKQRELARKGSLKNGSMGSPVNQ [FAM219A] | 5.33 ± 0.097 | 5.35 ± 0.16
WIPQAGPPELNYGATGECQNFLDP [ZNF449] | 4.29 ± 0.18 | 4.28 ± 0.27
GHLEVVRYLVGEHQADLEVANRHG [FEM1A] | 3.4 ± 0.48 | 3.24 ± 0.41
GFLQALSLAVDKQFEERKKLAAYI [TRIP13] | 3.35 ± 0.22 | 2.54 ± 0.39

Sequence | protein stability index (treatment: DMSO) | protein stability index (treatment: MLN4924 1 uM, 8 h)
IVEKRVLAHLAPLFDNPKLDKELR [INTS3] | 2.13 ± 0.2 | 2.13 ± 0.37
QATKASLKERFAFLFNSELLSDVR [BTBD1] | 2.55 ± 0.22 | 2.67 ± 0.34
NLLGEGQHKCDECGKSFTQSSGLI [ZSCAN9] | 3.66 ± 0.3 | 3.68 ± 0.28
PESQMCRKFSRECEDQKQIKKPES [NEUROD6] | 5.09 ± 0.38 | 5.31 ± 0.22
PYQCSQCSKSYSRRSFLIEHQRSH [ZSCAN9] | 4.3 ± 0.2 | 4.45 ± 0.43
GGFGGGFAGGFVDFGACDGGLLTG [KRT13] | 2.71 ± 0.084 | 3.12 ± 0.25
ERTYSANCSDFLESKGCFANTTPS [SPATS1] | 3.67 ± 0.14 | 3.56 ± 0.18
QKELKKAQMAKAAAEERALFTDRM [WEE1] | 4.69 ± 0.19 | 4.67 ± 0.16
LYYLRASKAAAGKMNLYESFAQAT [INTS3] | 2.59 ± 0.39 | 2.57 ± 0.31
GANVKPRNSTPPSLARNPAPGVLT [ZC2HC1A] | 4.24 ± 0.23 | 4.16 ± 0.5
ELLDLSKQYDQQFPDGDDEFDSPH [STX11] | 4.89 ± 0.2 | 4.9 ± 0.17
IFNVAIPRFHMACPTFRVSIARLE [FBXO3] | 2.19 ± 0.57 | 2.2 ± 0.47
YMMAKKHLEINPDHPIVETLRQKA [HSP90AB1] | 3.01 ± 0.33 | 3.19 ± 0.39
PPAPAPLPPPSAPSLQPSRKLSPT [SCAMP3] | 5.34 ± 0.25 | 5.32 ± 0.12
WIAHSEKLPRKVLQHVSEPQAHQE [SPACA9] | 4.11 ± 0.35 | 4.05 ± 0.34
ILSLEGGYNLRALAEGVSASLHTL [HDAC6] | 2.15 ± 0.79 | 2.12 ± 0.39
QEVVELPVTERQIEREHLIQLRRW [TBC1D10A] | 4.05 ± 0.25 | 4.22 ± 0.2
IIDNTNLHAWEMKPYAVMVFQTEQ [N4BP2L1] | 2.15 ± 0.25 | 2.09 ± 0.18
PPGYSAWIKEEAAERYLYFPNWAM [SLC6A17] | 2.33 ± 0.28 | 2.11 ± 0.4
SRELSLRPSRSGAQQLEEEGPMEE [EID1] | 5.58 ± 0.29 | 5.64 ± 0.12
DISIHHFTCDEENVFAAVGRGLYV [WDR41] | 2.7 ± 0.35 | 2.61 ± 0.43
